The data set is described as follows: self-splicing fitness, log relative to wild type (ln ratio); higher = more splicing; Tetrahymena group I intron in knt gene, E. coli kanamycin selection, DiMSum; sequences stand for … in CUCUCU…GGAGGGAAAAGUUAUCAGGCAUGCACCUGGUAGCUAGUCUUUAAACCAAUAGAUUGCAUCGGUUUAAAAGGCAAGACCGUCAAAUUGCGGGAAAGGGGUCAACAGCCGUUCAGUACCAAGUCUCAGGGGAAACUUUGAGAUGGCCUUGCAAAGGGUAUGGUAAUAAGCUGACGGACAUGGUCCUAACCACGCAGCCAAGUCCUAAGUCAACAGAUCUUCUGUUGAUAUGGAUGCAGUUCACAGACUAAAUGUCGGUCGGGGAAGAUGUAUUCUUCUCAUAAGAUAUAGUCGGACCUCUCCUUAAUGGGAGCUAGCGGAUGAAGUGAUGCAACACUGGAGCCGCUGGGAACUAAUUUGUAUGCGAAAGUAUAUUGAUUAGUUUUGGAGUACUCGUGGUCG
The essentials: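 The eight P1ex-region nucleotides of an intron in the knt kanamycin-resistance gene on pET-22b(+) were all randomised and the library put into E. coli BL21(DE3). Six replicate transformations were grown overnight at 37°C or 30°C on LB agar with or without 25 μg/mL kanamycin, together with 100 μg/mL carbenicillin, 50 μM IPTG and 0.2% rhamnose. Colonies were pooled and amplicon-sequenced on an Illumina HiSeq 2500. Fitness from DiMSum is the error-weighted combination of wild-type-normalised replicate fold changes, kanamycin over none.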

± gives the uncertainty stated by the source.

For AUAAAGCAAUAUUACGCGAG, the “self-splicing fitness (ln)” value is -1.08 ± 0.075 (30 °C) and 0.0257 ± 0.095 (37 °C).

Regarding AUAAAGCAAUAUUACGCGCA, the “self-splicing fitness (ln)” value by setting is: (30 °C) 0.0901 ± 0.058; (37 °C) -0.398 ± 0.075.

For AUAAAGCAAUAUUACGCGGA, the “self-splicing fitness (ln)” value is, setting by setting: (30 °C) -1.65 ± 0.083; (37 °C) 0.155 ± 0.089.

For AUAAAGCAAUAUUACGCGUG, the “self-splicing fitness (ln)” value (30 °C) is -1.11 ± 0.067 and the “self-splicing fitness (ln)” value (37 °C) was -0.15 ± 0.074.

In the case of AUAAAGCAAUAUUACGGCAC, the “self-splicing fitness (ln)” value was -0.531 ± 0.073 (30 °C) and -0.1 ± 0.11 (37 °C).

In the case of AUAAAGCAAUAUUACGGCCU, the “self-splicing fitness (ln)” value is 0.372 ± 0.11 (30 °C) and 0.382 ± 0.14 (37 °C).

As to AUAAAGCAAUAUUACGGCGC, the “self-splicing fitness (ln)” value (30 °C) was determined as 0.0765 ± 0.13 and the “self-splicing fitness (ln)” value (37 °C) came to 0.21 ± 0.14.

For AUAAAGCAAUAUUACGGCGG, the “self-splicing fitness (ln)” value (30 °C) was -0.248 ± 0.062 and the “self-splicing fitness (ln)” value (37 °C) was -0.197 ± 0.077.

For the sequence AUAAAGCAAUAUUACGGGCC, the “self-splicing fitness (ln)” value is -2.21 ± 0.17 (30 °C) and -0.0428 ± 0.17 (37 °C).

For the sequence AUAAAGCAAUAUUACGGGGA, the “self-splicing fitness (ln)” value (30 °C) is -1.96 ± 0.14 and the “self-splicing fitness (ln)” value (37 °C) is -1.4 ± 0.18.

As to AUAAAGCAAUAUUACGGUGG, the “self-splicing fitness (ln)” value was -2.61 ± 0.1 (30 °C) and -1.4 ± 0.12 (37 °C).

Turning to AUAAAGCAAUAUUACGUAAU, the “self-splicing fitness (ln)” value by setting is: (30 °C) -0.762 ± 0.081; (37 °C) -0.869 ± 0.094.

For AUAAAGCAAUAUUACGUCAG, the “self-splicing fitness (ln)” value reads like this: (30 °C) -1.6 ± 0.12; (37 °C) -0.647 ± 0.12.

Turning to AUAAAGCAAUAUUACGUCGG, the “self-splicing fitness (ln)” value was -1.28 ± 0.075 (30 °C) and -0.774 ± 0.089 (37 °C).

In the case of AUAAAGCAAUAUUACGUGAU, the “self-splicing fitness (ln)” value is, setting by setting: (30 °C) -1.64 ± 0.074; (37 °C) -0.793 ± 0.11.

Turning to AUAAAGCAAUAUUACGUGGC, the “self-splicing fitness (ln)” value by setting is: (30 °C) -3.27 ± 0.13; (37 °C) -2.69 ± 0.16.

As to AUAAAGCAAUAUUACGUGUG, the “self-splicing fitness (ln)” value is, setting by setting: (30 °C) -1.55 ± 0.061; (37 °C) -0.947 ± 0.073.

As for AUAAAGCAAUAUUACGUUCC, the “self-splicing fitness (ln)” value by setting is: (30 °C) -0.979 ± 0.13; (37 °C) -0.885 ± 0.18.

AUAAAGCAAUAUUACGUUUA: the “self-splicing fitness (ln)” value is -0.935 ± 0.065 (30 °C) and -0.201 ± 0.08 (37 °C).

Regarding AUACAGCAAUAUUACGAGAG, the “self-splicing fitness (ln)” value reads like this: (30 °C) -3.39 ± 0.14; (37 °C) -2.1 ± 0.088.

As for AUACAGCAAUAUUACGAUAC, the “self-splicing fitness (ln)” value reads like this: (30 °C) -2.01 ± 0.075; (37 °C) -1.08 ± 0.088.

With AUACAGCAAUAUUACGAUCU, the “self-splicing fitness (ln)” value reads like this: (30 °C) -0.478 ± 0.077; (37 °C) -0.0165 ± 0.087.

For AUACAGCAAUAUUACGAUGA, the “self-splicing fitness (ln)” value is, setting by setting: (30 °C) -1.42 ± 0.11; (37 °C) -0.0115 ± 0.1.

For the sequence AUACAGCAAUAUUACGCGCG, the “self-splicing fitness (ln)” value reads like this: (30 °C) -0.869 ± 0.1; (37 °C) -1.07 ± 0.093.

For AUACAGCAAUAUUACGCUUG, the “self-splicing fitness (ln)” value is -1.35 ± 0.08 (30 °C) and -0.94 ± 0.1 (37 °C).

In the case of AUACAGCAAUAUUACGGAAA, the “self-splicing fitness (ln)” value was -3.24 ± 0.2 (30 °C) and -2.16 ± 0.17 (37 °C).

Turning to AUACAGCAAUAUUACGGCAU, the “self-splicing fitness (ln)” value by setting is: (30 °C) -0.388 ± 0.083; (37 °C) 0.525 ± 0.099.

AUACAGCAAUAUUACGGCGC: the “self-splicing fitness (ln)” value runs as follows: (30 °C) -0.801 ± 0.1; (37 °C) 0.447 ± 0.15.

Turning to AUACAGCAAUAUUACGGCGG, the “self-splicing fitness (ln)” value reads like this: (30 °C) -1.19 ± 0.095; (37 °C) -0.617 ± 0.12.

For AUACAGCAAUAUUACGGGCC, the “self-splicing fitness (ln)” value is, setting by setting: (30 °C) -2.7 ± 0.17; (37 °C) -2.82 ± 0.44.

Regarding AUACAGCAAUAUUACGGGUC, the “self-splicing fitness (ln)” value (30 °C) is -3.7 ± 0.21 and the “self-splicing fitness (ln)” value (37 °C) is -2.48 ± 0.19.

As for AUACAGCAAUAUUACGUUUU, the “self-splicing fitness (ln)” value (30 °C) is -2.19 ± 0.12 and the “self-splicing fitness (ln)” value (37 °C) was -2.09 ± 0.15.

Consider AUAGAGCAAUAUUACGAAUU, for which the “self-splicing fitness (ln)” value (30 °C) is -0.889 ± 0.15 and the “self-splicing fitness (ln)” value (37 °C) was -0.429 ± 0.23.

AUAGAGCAAUAUUACGACCG: the “self-splicing fitness (ln)” value was -2.9 ± 0.27 (30 °C) and -1.57 ± 0.43 (37 °C).

As to AUAGAGCAAUAUUACGACGU, the “self-splicing fitness (ln)” value reads like this: (30 °C) 0.0144 ± 0.077; (37 °C) 0.556 ± 0.099.

As for AUAGAGCAAUAUUACGAGGG, the “self-splicing fitness (ln)” value is, setting by setting: (30 °C) -3.05 ± 0.25; (37 °C) -1.56 ± 0.26.

AUAGAGCAAUAUUACGAUCA: the “self-splicing fitness (ln)” value (30 °C) is -0.545 ± 0.098 and the “self-splicing fitness (ln)” value (37 °C) is -0.894 ± 0.15.

The values are drawn from the supplement of paper PMC7877785.
